This assay concerns the target T1, human claudin-4 (full-length), wild type (human, UniProt O14493 1-209).
T1 construct: also called claudin-4 wild type; WT
T1 sequence (looked up): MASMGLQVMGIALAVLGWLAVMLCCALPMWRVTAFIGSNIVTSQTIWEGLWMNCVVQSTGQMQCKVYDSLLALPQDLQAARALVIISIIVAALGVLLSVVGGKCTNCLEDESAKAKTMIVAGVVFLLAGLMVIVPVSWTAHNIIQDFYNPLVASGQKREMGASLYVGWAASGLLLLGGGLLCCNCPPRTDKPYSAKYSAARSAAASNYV
The assay is described as follows: pull-down. As to conditions: both partners purified.

B1: glutathione-S-transferase-tagged C-CPE (residues 185′–319′), wild type (domain or fragment)
chain: RCVLTVPSTDIEKEILDLAAATERLNLTDALNSNPAGNLYDWRSSNSYPWTQKLNLHLTITATGQKYRILASKIVDFNIYSNNFNNLVKLEQSLGDGVKDHYVDISLDAGQYVLVMKANSSYSGNYPYSILFQKF
Take B1: the binding result is “binds”.
